Source: the RNAGym collection of RNA variant scans (doi:10.1021/acssynbio.7b00057)

B1: Pistol ribozyme (parent)
chain: GGGUCGUUGUUCCAUAAUCGCGUGGAUAUGGCACGCAAGUUUCUACCGGGCACCGUAAAUGUCCGACUGGAGCCGUUCGGGCGGCUAUAAACAGACCUCAGGCCCGAAGCGUGGCGGCACCUGCCGCCGGUGGUAAAAAAGAUCGGAAGAGCACACGUCU

Variants of: B1
Assay: aptazyme ON/OFF ratio, guanine; higher = stronger switching; co-transcriptional cleavage with and without guanine

Variant	aptazyme ON/OFF ratio
U8G C12G C13U	1.55
U8C U11C C12U C13A	1.19
U8C G9U U10C C12G	1.26
U7C U8A U10A U11G C12G C13U	1.24
G9U U10A U11G C12U	1.27
U7A U10A U11G C12U	1.15
U7C G9U U10A C13U	1.22
U7G U8A G9A U10A C13A	1.19
U7G G9C U10C U11G	1.18
U7G U8A U10C U11A C12A C13G	1.23
U8G G9A U11A C12G C13U	1.26
U7C G9A U10G U11A C12U C13A	1.05
U7G U8C U10C U11G C12G C13A	1.13
U7G U8G G9U C12A C13U	1.06
U7G U8G G9U U11G C13A	1.2
U8G G9U U10A U11G C12G C13A	1.05
U7C U8C G9U U10A C12U C13A	1.07
U8G G9A C12G C13U	1.33
U7G U8C G9C U10A U11A C12U C13U	1.08
U7A U8C U10C C12G	1.46
U7C G9C U10G U11C C12A	1.19
U7C U8A G9C U10G U11C C12G C13U	1.19
U7G U10C U11G C12G C13A	1.11
U7A U8C G9A U10A C12U C13A	1.11

Variant	aptazyme ON/OFF ratio
U8A G9C U10C U11G C12A C13U	1.02
U7C U8C G9C	1.13
U7A U10G U11A C13A	1.11
U7G U8A G9A U10C C12U C13G	1.07
G9U U10G U11A C12G C13G	1.08
U7C G9U U10G C12G C13A	1.2
U8A G9C U11A C12A C13A	1.22
G9A U10C U11A C12G C13A	1.14
U7C G9A U10A U11A C12G	1.2
G9A U10G U11G C12G C13U	1.15
U7C U8A G9U U10A C12G C13A	1.12
U7G U8G U10G C12G C13A	1.21
U7C U8C G9A U10G U11A C13G	1.25
U7C U8C G9C U10G U11A C12A C13G	1.11
U7C U8A G9U U11G C12G C13A	1.14
U7A U8C G9U U11A C12A C13A	1.42
U7C G9U U10C U11C C12G C13A	1.03
U7G G9U C12A C13A	1.46
U8A G9C U11C C12A	1.08
U7G U8G G9U U10G U11A C12A C13A	1.07
U7A U8A G9A U10C U11C C12A	1.18
U8C G9U U11G C12U C13U	1.14
U7C U8G G9C U10A U11G C12G C13A	1.31
U7A U10C C12U C13A	1.16

Variant	aptazyme ON/OFF ratio
U7C G9C U11A C12U C13G	1.03
U7G U8G G9C U10A U11A C12U C13G	1.03
U7A U8C U11A	1.14
U7A U8C G9C U10A C12U	1.11
U7A U8A G9A U10C U11G C12G C13G	1.15
U8A G9A U11A	1.39
U7C U8G G9C U10C U11A C13G	1.23
U10A C12U	1.16
G9A U10G U11C C12A	1.53
U7G G9U U11G C12A C13G	1.2
U8C G9A U10C U11C C13A	1.01
U8A G9A C13U	1.23
U7G U8A U10G C12A C13G	1.11
U7A U8C U11C C13U	1.17
U7G U8A G9A U10G C12U C13U	1.13
U8G G9A U11G C12A C13A	1.16
U7A U8G G9C U10C U11C C12U C13G	1.06
U7A U8A U10A U11G C12U C13U	1.31
U7G U8C G9A U11G C12G C13A	1.07
U7C G9U U11A C13G	1.03
U7A G9U U10A C12U	1.22
U7G U8C U10C U11A C13U	1.35
U8C G9C U10A C12U C13A	1.08
U7A U8A G9A U10C C12G C13G	1.03

Variant	aptazyme ON/OFF ratio
U7C U8G G9C U10G U11A C12G C13U	1.24
U7C U8G U11A C13U	1.16
U8G G9A U10A U11A C12U C13A	1.36
U7G U8A U10C U11C C12A C13U	1.23
U8C G9U U10C U11C C13U	1.04
U8G G9A U11G C12A C13G	1.2
U7C U8G G9U U10C U11C C12G C13A	1.13
U7A G9C U10G C12U C13G	1.11
U7C U8G G9C U10A U11G C13U	1.18
U7G U8A G9U U10C C13U	1.38
U7C U8C U10A U11C C12A C13A	1.13
U7G G9C C12A C13G	1.33
U7C U8A U10C C12G C13G	1.16
U7C U8C G9C U10A U11C C12G	1.21
U8G G9A U10G U11A C12U C13G	1.33
U7G G9A U10A U11G C12A C13A	1.05
U7A U8C G9U U10A U11C C13A	1.08
U7G G9C U10A U11C C13A	1.21
U7C U8A U10A U11C C12A C13A	1.06
U7C U8A G9U U10A U11A C12A C13U	1.19
U7G U8A G9C U10C U11A C12G C13A	1.03
U7A U8A G9U U10A U11A C13U	1.27
U7C G9C U10A C12A C13A	1.09
U7G G9C U10G C12U C13G	1.38

Variant	aptazyme ON/OFF ratio
U7C U8A C12G C13U	1.3
U7A U8C G9U U11G C13A	1.2
U7A U8G U10G U11C C13G	1.29
U7G U8C U10C U11A C12U C13G	1.08
U7G U8G G9C U10G U11A C12A	1.17
U7C U8C G9U U10G U11C C12G C13G	1.17
U7G U8A G9U U10G U11G C12A C13A	1.07
U7C U8C G9U U10A U11C C12G C13G	1.19
U7C U8G G9A U10G U11G C12U C13U	1.22
U7A U8G G9U U10C U11G C12A C13U	1.45
U8A G9C U10G C13G	1.17
U8G G9U U10A U11C C12A	1.12
U10G U11G C13G	1.21
U8A G9U C12U	1.46
U7G U8A G9C U10A C13G	1.01
U7G U8C G9C U10C U11C C12G	1.06
U7G U8A G9A U10A U11A C12U C13U	1.19
U7G U8G G9A U10G U11A C12G C13U	1.26
U7G U8G G9A U10C C12U C13U	1.29
U7G U8C G9U U10C U11C C12G	1.16
U8G G9C U10C U11G C12U C13G	1.1
U7A U8A U11A C13U	1.11
U7C U8G G9U U10G U11C C12U C13G	1.08
U8A U10G U11C C12A C13U	1.21

Variant	aptazyme ON/OFF ratio
U8A G9U U11C C12U C13U	1.16
U7G U8G U10C U11A	1.74
U7G U8A U11G	1.24
U7G U8G G9C U10G U11A C12G	1.16
U7C U8A G9U U10G U11A C12U C13G	1.11
U7A U8A G9C	1.22
U7A U8C G9C U10G U11C C12U C13A	1.12
U8C G9C U10C U11G C12U C13G	1.1
U7C U8G U10A U11C C12A	1.13
U7C G9U U10C U11A C12G C13G	1.23
U7G U8G U11G C12G C13A	1.18
U8C G9A U11C C12A C13G	1.14
U7A U8A G9C U10G U11G C12A	1.76
U7C U8C G9C U11G C12A C13G	1.1
U11G C12U C13G	1.04
U7A G9C U10G U11C C12U	1.04
U7G U8G G9A U10A U11G C12U C13A	1.13
U8A G9A U10G C12A C13U	1.36
U7C U8G G9A U10C U11G C13G	1.12
U8A G9A U11A C12G	1.31
U7A U8C G9C U10A U11A C12G C13G	1.08
U7C U8C G9C U10C C12G	1.14
U7A U8A G9C U10C U11C C12A C13U	1.02
U7G U8C G9C U10G U11G C12A C13G	1.13

Variant	aptazyme ON/OFF ratio
U7A U8A G9U U11C C12A C13A	1.12
U7G U8C C12U C13U	1.07
U7C U8A G9U U10C U11C C12G C13G	1.11
U8C G9A U11A C12G C13A	1.14
U7G G9C U11A C12A C13A	1.35
U7A U8A G9A U10G U11G C12U C13A	1.25
U8A G9U U10G C12A	1.18
U7C U8C G9C U11C	1.43
U8A U10G U11G	1.16
G9C U10A U11C C12A C13U	1.29
U7C U8G G9U U10G U11C	1.07
U7C U8G G9A U10G U11A C12G C13A	1.26
U7C G9A U11A C12G C13U	1.27
U7C U8A G9C U10G U11A C12G C13A	1.1
U7A U8A G9A U10G	1.31
U7C U8C U10A U11A C12A C13G	1.11
U7G U8A G9A U11G C12G C13U	1.1
U7G U8G G9U U10C U11C C12G C13U	1.33
U7C U8G G9A U10A U11C C12U C13A	1.14
U7C G9A U10A U11A C12G C13A	1.17
U7C U8A U10A U11G C12U C13U	1.2
U7C U8A G9A U10G U11G C12G C13A	1.21
U7G U8C U10A U11C C13A	1.05
